From publication PMC5729022 come the findings set out here.

The target in test [1] is soluble fibrillar collagen type II from bovine tracheal cartilage (bovine) (UniProt P02459).
Test [2] concerns the target soluble fibrillar collagen type III from human placenta (human) (UniProt P02461).
The target of test [3] is network soluble collagen type IV from human placenta (human) (UniProt P02462).
Test [4] has as its target insoluble microfibrillar collagen type I from bovine Achilles tendon, Col I(S) (bovine) (UniProt P02453).
Test [5] addresses insoluble microfibrillar collagen type I from bovine skin, Col I(D) (bovine) (UniProt P02453).

Sequence of UniProt P02459 (P02459 182-1241): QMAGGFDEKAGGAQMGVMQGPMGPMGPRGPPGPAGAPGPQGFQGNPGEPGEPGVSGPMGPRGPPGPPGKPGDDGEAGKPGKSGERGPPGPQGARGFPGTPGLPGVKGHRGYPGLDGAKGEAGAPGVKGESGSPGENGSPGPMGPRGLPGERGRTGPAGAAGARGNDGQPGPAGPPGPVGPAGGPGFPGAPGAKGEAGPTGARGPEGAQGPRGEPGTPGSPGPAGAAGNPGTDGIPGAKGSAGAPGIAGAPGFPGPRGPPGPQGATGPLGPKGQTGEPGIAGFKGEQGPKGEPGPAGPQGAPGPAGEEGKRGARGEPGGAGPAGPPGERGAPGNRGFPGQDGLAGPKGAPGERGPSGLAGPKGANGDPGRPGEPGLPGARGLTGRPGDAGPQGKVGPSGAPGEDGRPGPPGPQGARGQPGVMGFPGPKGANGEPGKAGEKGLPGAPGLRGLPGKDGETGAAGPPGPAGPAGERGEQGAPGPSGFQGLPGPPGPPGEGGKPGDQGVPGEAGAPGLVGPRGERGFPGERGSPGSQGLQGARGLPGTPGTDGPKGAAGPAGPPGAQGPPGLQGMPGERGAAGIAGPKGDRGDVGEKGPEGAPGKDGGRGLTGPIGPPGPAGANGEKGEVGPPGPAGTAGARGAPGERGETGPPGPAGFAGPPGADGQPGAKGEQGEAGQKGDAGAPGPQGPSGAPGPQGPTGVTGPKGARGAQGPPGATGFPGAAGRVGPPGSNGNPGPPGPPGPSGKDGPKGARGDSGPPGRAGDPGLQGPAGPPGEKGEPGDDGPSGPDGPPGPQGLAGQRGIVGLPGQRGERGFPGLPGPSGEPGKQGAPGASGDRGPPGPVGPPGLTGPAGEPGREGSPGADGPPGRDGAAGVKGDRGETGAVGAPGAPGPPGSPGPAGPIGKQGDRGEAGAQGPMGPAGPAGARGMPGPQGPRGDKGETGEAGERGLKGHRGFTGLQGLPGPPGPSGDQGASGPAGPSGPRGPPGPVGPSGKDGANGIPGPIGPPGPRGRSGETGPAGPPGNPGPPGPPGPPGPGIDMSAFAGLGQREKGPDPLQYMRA
Sequence of UniProt P02461 (P02461 154-1221): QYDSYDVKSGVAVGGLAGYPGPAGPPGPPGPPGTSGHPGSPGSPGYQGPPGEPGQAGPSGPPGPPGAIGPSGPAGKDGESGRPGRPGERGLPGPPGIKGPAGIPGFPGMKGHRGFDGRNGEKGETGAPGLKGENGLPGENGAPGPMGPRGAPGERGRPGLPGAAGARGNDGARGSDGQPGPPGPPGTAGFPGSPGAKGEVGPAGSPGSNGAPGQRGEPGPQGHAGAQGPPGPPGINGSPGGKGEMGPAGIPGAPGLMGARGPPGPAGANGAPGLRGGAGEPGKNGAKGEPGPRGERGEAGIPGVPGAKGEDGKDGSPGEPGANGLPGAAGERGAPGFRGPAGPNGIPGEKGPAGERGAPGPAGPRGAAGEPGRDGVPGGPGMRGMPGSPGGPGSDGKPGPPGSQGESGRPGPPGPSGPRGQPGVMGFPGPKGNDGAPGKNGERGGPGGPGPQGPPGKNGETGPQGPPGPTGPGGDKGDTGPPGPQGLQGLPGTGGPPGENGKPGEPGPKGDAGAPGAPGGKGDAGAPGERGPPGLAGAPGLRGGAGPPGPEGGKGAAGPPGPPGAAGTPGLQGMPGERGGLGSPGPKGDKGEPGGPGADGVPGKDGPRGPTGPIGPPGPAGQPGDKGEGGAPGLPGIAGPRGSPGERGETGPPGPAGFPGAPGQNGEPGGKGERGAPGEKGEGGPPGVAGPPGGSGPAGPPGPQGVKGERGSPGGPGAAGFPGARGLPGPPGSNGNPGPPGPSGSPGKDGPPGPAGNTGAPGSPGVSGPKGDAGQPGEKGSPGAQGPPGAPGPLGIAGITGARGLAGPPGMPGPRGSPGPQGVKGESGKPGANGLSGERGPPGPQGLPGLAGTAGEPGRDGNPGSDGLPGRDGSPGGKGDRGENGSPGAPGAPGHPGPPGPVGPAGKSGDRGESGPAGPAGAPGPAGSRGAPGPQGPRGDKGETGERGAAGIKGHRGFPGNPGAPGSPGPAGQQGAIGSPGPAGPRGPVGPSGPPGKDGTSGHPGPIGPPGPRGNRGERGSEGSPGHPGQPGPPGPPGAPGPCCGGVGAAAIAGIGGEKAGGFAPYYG

As to “recombinant rat integrin α1 I domain (GST fusion) (domain or fragment)”, the percent of Rugli cells (endogenous rat α1β1) adhering to the collagen coating, 5 mM Mg2+, LDH assay, 1 × 10^5 cells/ml is 18.9% in test [1]; 55.6% in test [2]; 64.1% in test [3]; 22.8% in test [4]; 27% in test [5].

As to “recombinant human integrin α2 I domain (GST fusion) (domain or fragment)”, the percent of C2C12 cells transfected with human integrin α2 adhering to the collagen coating, 5 mM Mg2+, LDH assay, 1 × 10^5 cells/ml in test [1] stood at 23.9%; in test [2], 18.5%; in test [3] it was 16.1%; in test [4] it was 44.2%; in test [5], 36.5%. Moreover, the percent of HT1080 cells (endogenous human α2β1) adhering to the collagen coating, 5 mM Mg2+, LDH assay, 1 × 10^5 cells/ml in test [1] was found to be 40.3%; in test [2], 28.1%; in test [3] it was 24.7%; in test [4], 45.6%; in test [5], 43.6%.

Take “recombinant human integrin α1 I domain (GST fusion) (from UniProt P56199 169-363) (domain or fragment)”: the percent of C2C12 cells transfected with human integrin α1 adhering to the collagen coating, 5 mM Mg2+, LDH assay, 1 × 10^5 cells/ml in test [3] came to 51.9%.
